US20260125477A1 (BEIJING MABWORKS BIOTECH, published 2026)

T1: human B7-H2/ICOSLG protein, with His tag (human, UniProt O75144 19-258, limits assumed)
T1 construct: Bought protein
T1 sequence (looked up): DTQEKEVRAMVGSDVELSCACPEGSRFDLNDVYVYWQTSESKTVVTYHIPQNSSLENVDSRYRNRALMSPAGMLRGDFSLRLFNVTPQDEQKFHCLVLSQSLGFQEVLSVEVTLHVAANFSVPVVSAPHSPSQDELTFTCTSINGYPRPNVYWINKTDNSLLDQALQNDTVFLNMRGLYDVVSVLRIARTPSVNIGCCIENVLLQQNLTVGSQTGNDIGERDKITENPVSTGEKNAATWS

T2: human PD-L2/B7-DC protein, with His tag (human, UniProt Q9BQ51 20-219, limits assumed)
T2 construct: Bought protein
T2 sequence (looked up): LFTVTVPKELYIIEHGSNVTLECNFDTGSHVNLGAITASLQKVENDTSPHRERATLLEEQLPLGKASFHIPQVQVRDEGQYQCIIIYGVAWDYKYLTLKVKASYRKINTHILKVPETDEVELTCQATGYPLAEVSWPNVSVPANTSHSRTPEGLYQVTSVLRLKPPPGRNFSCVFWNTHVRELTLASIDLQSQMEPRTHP

T3: human B7-2/CD86 protein, with His tag (human, UniProt P42081 26-247, limits assumed)
T3 construct: Bought protein
T3 sequence (looked up): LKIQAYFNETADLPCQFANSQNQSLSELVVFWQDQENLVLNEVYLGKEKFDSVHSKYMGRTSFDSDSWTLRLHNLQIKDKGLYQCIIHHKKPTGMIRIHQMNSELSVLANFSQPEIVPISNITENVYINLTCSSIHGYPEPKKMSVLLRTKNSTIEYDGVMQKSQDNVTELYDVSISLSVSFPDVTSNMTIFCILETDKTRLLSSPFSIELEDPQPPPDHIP

T4: mouse B7-H3/CD276 protein, with His tag (mouse, UniProt Q8VE98 29-244, limits assumed)
T4 construct: Bought protein
T4 sequence (looked up): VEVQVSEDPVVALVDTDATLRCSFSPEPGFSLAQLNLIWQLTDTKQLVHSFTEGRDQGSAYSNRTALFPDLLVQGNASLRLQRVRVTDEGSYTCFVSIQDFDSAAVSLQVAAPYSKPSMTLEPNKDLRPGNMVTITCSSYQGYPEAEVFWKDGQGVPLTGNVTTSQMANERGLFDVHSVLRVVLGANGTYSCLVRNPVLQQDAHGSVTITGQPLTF


Assays:
[1] = molecular target: T1, human B7-H2/ICOSLG protein, with His tag; assay: SPR (Biacore T200), antibody captured on Protein A chip
Description: (§1) The anti-human B7-H3 antibodies were tested for their binding capability to B7 family proteins by SPR using Biacore T200 biosensor (Biacore, US) provided with a pre-fixed Protein A sensor chip.
(§2) The dissociation was monitored for 600 sec. The data was analyzed using Biacore 8k evaluation software version 3.0, to obtain the binding responses, and the protein concentration-binding response curves were plotted, to determine the cross-reaction of the anti-human B7-H3 antibodies to the B7 family proteins.

[2] = molecular target: T2, human PD-L2/B7-DC protein, with His tag; assay: as above
Description: as §1, §2

[3] = molecular target: T3, human B7-2/CD86 protein, with His tag; assay: as above
Description: as §1, §2

[4] = molecular target: T4, mouse B7-H3/CD276 protein, with His tag; assay: SPR (Biacore T200), antibody captured on Protein A chip, His-tagged antigen injected
Description: The fully human anti-human B7-H3 antibodies were tested for their binding affinity to human B7-H3 (4Ig), human B7-H3 (2Ig), monkey B7-H3 (monkey B7-H3/CD276 protein, with His tag, Cat #: B73-C52Ha, ACROBiosystems) and mouse B7-H3 protein (mouse B7-H3/CD276 protein, with His tag, Cat #: B73-M52H4, ACROBiosystems) by surface plasmon resonance (SPR) using Biacore T200 biosensor (Biacore, US) provided with a pre-fixed Protein A sensor chip. Briefly, the anti-human B7-H3 antibodies (1 μg/mL) were injected to the Biacore T200 biosensor at 10 μL/min for 20 sec, to achieve the desired protein density (100±30 RU).
The data as generated was analyzed using Biacore Insight V2.0.1 5.12933 with the one-to-one Langmuir binding model. The association rate (kₒₙ) and dissociation rate (koff) were obtained at the same time. The affinity was calculated as the quotient of the two kinetic rate constants (KD=koff/kₒₙ).

binding result [1]	binding result [2]	binding result [3]	Kd [4]	koff [4]	kon [4]	Binder
no binding (tested: 200 nM)	no binding (tested: 200 nM)	no binding (tested: 200 nM)				10F5 (antibody, human IgG1, kappa, V domains shown, also called Ab10F5) VH: QVQLVQSGAEVKKPGSSVKVSCKASGGTFSSQAISWVRQAPGQGLEWMGRIIPMLGIGDYAQSFQGRVTITADKSTSTAYLEVSSLGSEDTAVYYCAREGIAALGTNYYYGMDVWGQGTAVTVSS VL: EIVMTQSPSSVSASVGDRVTITCRASQGISRWLAWYQQKPGKAPKLLIYVASSLQSGVPSRFSGSGSGTDFTLTISSLQPEDFATYYCQQANSFPFTFGPGTKVDIRR
			274 nM	0.0159 s⁻¹	58300 M⁻¹ s⁻¹	6B5 (antibody, human IgG1, kappa, V domains shown, also called 6B5-WT; Ab6B5) VH: QVQLVESGPGLVKPSQTLSLTCTVSDGSISSGGYYWSWIRQHPGKGLEWIGYIYYSGGTYYSPSLKSRVTISVDTSKNQFSLKLTSVTAADTAVYYCARRAGYSSSFDSWGQGILVTVSS VL: EIVLTQSPLSLPVTPGEPASISCRSSQSLLYSNGYTYLDWYLQKPGQSPQFLIYLGFNRASGVPDRFSGSGSGTDFTLKISRVEAEDVGVYYCMQGLQTPYTFGQGTKLEIKR
